Results reported in patent US10047138.

Experiments:
[1] = molecular target: ICOS-CD3 III fusion protein (human); test: cell-based or functional assay
[2] = molecular target: full length human wild type ICOS (human) (UniProt Q9Y6W8); test: cell-based or functional assay
UniProt Q9Y6W8, sequence (Q9Y6W8 21-199): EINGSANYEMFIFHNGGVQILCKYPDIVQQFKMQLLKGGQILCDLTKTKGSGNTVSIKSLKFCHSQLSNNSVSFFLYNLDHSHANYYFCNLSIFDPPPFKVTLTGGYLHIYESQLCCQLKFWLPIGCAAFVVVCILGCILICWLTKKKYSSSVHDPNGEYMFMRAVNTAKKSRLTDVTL

ICOS-CD3 III fusion protein (human), sequence (chain, as listed by the source limits assumed): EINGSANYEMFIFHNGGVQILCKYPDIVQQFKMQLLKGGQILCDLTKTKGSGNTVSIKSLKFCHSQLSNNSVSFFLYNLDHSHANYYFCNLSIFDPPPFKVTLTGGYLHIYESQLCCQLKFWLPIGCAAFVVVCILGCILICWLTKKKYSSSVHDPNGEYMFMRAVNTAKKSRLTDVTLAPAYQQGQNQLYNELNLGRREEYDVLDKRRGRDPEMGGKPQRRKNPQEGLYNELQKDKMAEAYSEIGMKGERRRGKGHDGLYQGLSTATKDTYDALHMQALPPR

Q: “B7RP1-Fc protein (from UniProt O75144 19-253) (Fc fusion)” was tested. Which IL-2 secretion (RLU), difference between clusters 1 (anti-CD3 alone) and 3 (anti-CD3 plus B7RP1-Fc) [1] did it give?
A: > 200 fold

Q: What about the IL-2 secretion by Jurkat cells, 2.5 µg/mL anti-CD3 antibody plus 50 µg/mL B7RP1-Fc against anti-CD3 antibody alone [1] of the same substance?
A: > 170 fold

Q: What about the IL-2 secretion (RLU), difference between clusters 1 (anti-CD3 alone) and 3 (anti-CD3 plus B7RP1-Fc) [2] of the same substance?
A: < 8 fold

Q: And the IL-2 secretion by Jurkat cells, 2.5 µg/mL anti-CD3 antibody plus 50 µg/mL B7RP1-Fc against anti-CD3 antibody alone [2]?
A: < 17 fold
